T1: hErbB3.mFc (soluble dimeric human ErbB3 extracellular domain fused to mouse Fc) (human)
T1 construct: called dimeric
T1 chain: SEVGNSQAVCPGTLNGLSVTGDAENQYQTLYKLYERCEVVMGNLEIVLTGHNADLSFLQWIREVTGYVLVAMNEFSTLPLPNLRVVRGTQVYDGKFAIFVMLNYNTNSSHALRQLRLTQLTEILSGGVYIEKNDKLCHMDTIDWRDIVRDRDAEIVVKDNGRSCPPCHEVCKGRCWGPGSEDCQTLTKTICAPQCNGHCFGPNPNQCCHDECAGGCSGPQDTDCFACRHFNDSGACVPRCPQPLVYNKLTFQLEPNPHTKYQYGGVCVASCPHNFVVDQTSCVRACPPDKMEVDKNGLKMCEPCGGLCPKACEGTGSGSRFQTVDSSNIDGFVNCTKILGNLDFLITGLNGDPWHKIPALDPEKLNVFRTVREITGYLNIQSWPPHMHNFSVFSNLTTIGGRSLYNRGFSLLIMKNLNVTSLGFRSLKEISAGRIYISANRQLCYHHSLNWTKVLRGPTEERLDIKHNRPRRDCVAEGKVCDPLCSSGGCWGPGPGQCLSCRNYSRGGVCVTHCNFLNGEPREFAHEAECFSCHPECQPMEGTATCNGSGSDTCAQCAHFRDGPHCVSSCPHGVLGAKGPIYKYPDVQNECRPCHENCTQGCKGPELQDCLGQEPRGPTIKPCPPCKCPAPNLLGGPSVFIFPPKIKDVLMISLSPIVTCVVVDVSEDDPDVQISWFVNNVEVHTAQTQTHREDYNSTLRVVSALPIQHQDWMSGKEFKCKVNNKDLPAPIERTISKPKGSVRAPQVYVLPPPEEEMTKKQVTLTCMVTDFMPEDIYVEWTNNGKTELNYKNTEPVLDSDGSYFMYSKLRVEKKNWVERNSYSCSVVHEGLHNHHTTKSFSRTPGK


Key:
[1] = target: hErbB3.mmh (soluble monomeric human ErbB3 extracellular domain with C-terminal myc-myc-hexahistidine tag) (human, UniProt P21860 20-642); test: SPR (Biacore), 25 C, mAb capture format
Description: (§1) (Tables 2-4). Measurements were conducted on a Biacore 2000 or T100 instrument. […] Kinetic association (kₐ) and dissociation (kd) rate constants were determined by processing and fitting the data to a 1:1 binding model using Scrubber 2.0 curve fitting software.

[2] = target: T1, hErbB3.mFc (soluble dimeric human ErbB3 …); test: SPR (Biacore), 25 C, mAb capture format
Description: as §1

Binder | Kd [1] | T½ [1] | koff [1] | kon [1] | Kd [2] | T½ [2] | koff [2] | kon [2]
H4H2098P (antibody, V domains shown, Fully human, human IgG4 Fc (H4H prefix)) VH: QVQLVESGGGVVQPGRSLRLSCAASGFTFSSFGMHWVRQAPGKGLEWVAVIWYVEINKYHADSVKGRFTISRDDSKNTVYLQMNSLRAEDTAVYYCARDWNDGDYGMDVWGQGTTVTVSS VL: DIQLTQSPSFLSASVGDRVTITCWASQGISSFLAWYQQKAGKAPRLLIYAASTLQTGVPSRFSGSGSGTEFTLTISSLQPGDFATYHCQQLNSYPYTFGQGTKLEIKR | 69 pM | 2.25 h | 7.89e-05 s⁻¹ | 1.14e+06 M⁻¹ s⁻¹ | 4.06 pM | 19.8 h | 8.97e-06 s⁻¹ | 2.21e+06 M⁻¹ s⁻¹
H4H2108P (antibody, V domains shown, Fully human, human IgG4 Fc (H4H prefix)) VH: EVQLLESGGDLVQPGGSLRLSCATSGFSFSSDAMNWVRQAPGKGLEWVSGISGSGGNTYYADSVKGRFTISRDISKSTLSLQMNSLRAEDTAVYYCAKEGTNMVRGVVMEDNGMDVWGQGTTVTVSA VL: DIQMTQSPSSVSASVGDRVTITCRASQGISDYLAWYQQKPGKAPKLLIYAASSLQSGVPSRFSGRGSGTDFTLTISTLQPEDFATYYCQQANSFPLTFGGGTKVDIKR | 41.8 pM | 2.18 h | 8.13e-05 s⁻¹ | 1.95e+06 M⁻¹ s⁻¹ | 1.46 pM | 41 h | 4.33e-06 s⁻¹ | 2.96e+06 M⁻¹ s⁻¹
H4H2084P (antibody, V domains shown, Fully human, human IgG4 Fc (H4H prefix)) VH: QVQLVESGGGVVQSGKSLRLSCVASGFTFSNYGMHWVRQTPGKGLEWVARIWFDGTNKYYTDSVKGRFTLSRDSSKNTLYLQMNSLRAEDTAVYFCAREESLELDHYVMDVWGQGTTVTVSS VL: AIQMTQSPSSLSASVGDRVTITCRASQDIRDDLGWFQQKPGKAPNLLIYAASSLQSGVPSRFSGSGSGTDFTLTISSLQPEDFATYYCLQDYNYPLTFGGGTKVEIKR | 23.9 pM | 2.98 h | 5.96e-05 s⁻¹ | 2.49e+06 M⁻¹ s⁻¹ | 1.03 pM | 44.9 h | 3.95e-06 s⁻¹ | 3.83e+06 M⁻¹ s⁻¹
H4H2114P (antibody, V domains shown, Fully human, human IgG4 Fc (H4H prefix)) VH: QVQLVESGGGVVQPGRSLRLSCAASGFTFSSYGMHWVRQAPGKGLEWVAGMSYDGSSKYYEDSVKGRFTISRDNSKNTLNLQMNSLRVEDTAVYYCAKERDYVEYVDSYYGMDVWGQGTTVTVSA VL: AIQMTQSPSSLSASVGDRVTITCRASQGIRNDLGWYQQKPGKAPKVLIYAASSLQSGVPSRFSGSGSGTVFTLTISSLQPEDFATYYCLQDYNYPLTFGGGTKVEIKR | 106 pM | 1.8 h | 9.88e-05 s⁻¹ | 929000 M⁻¹ s⁻¹ | 5.41 pM | 22.2 h | 7.98e-06 s⁻¹ | 1.48e+06 M⁻¹ s⁻¹
H4H2092P (antibody, V domains shown, Fully human, human IgG4 Fc (H4H prefix)) VH: EVQLVESGGGVVRPGGSLRLSCAASGFTFEDYGMNWVRQVPGKGLEWVSGTNWNGGITGYTGSVKGRFTISRDNAKNSLYLQMNSLRAEDTALYHCARDSGDQDAFDIWGQGTMVTVSS VL: DIQLTQSPSFLSASVGDRVTITCWASQDISSYLAWYQQKPGKAPKLLIYAASTFQSGVPSRFSGSGSGTEFTLTISNLQPEDFATYYCQQLDSYPLSFGGGTKVEIKR | 27.8 pM | 1.72 h | 0.000103 s⁻¹ | 3.72e+06 M⁻¹ s⁻¹ | 1.45 pM | 23.8 h | 7.46e-06 s⁻¹ | 5.16e+06 M⁻¹ s⁻¹
H4H2094P (antibody, V domains shown, Fully human, human IgG4 Fc (H4H prefix)) VH: EVQLVESGGGLVQPGGSLRLSCAASGFTFSSYDMHWVRQATGKGLEWVSAIGPAGDTYYPVSAMGRFTISRDDAKNSLYLQMNSLRAGDTAVYYCAREGVTIRPDDYFGLDVWGQGTTVTVSA VL: DIQLTQSPSFLSASVGDRVTITCWASQGISDYLAWYQKKPGKAPQLLIYAATTLQSGVPSRFSGSGSGTEFTLTISSLQPEDFATYYCQQLNTYPLTFGGGTKVEIKR | 7.22 pM | 13 h | 1.37e-05 s⁻¹ | 1.89e+06 M⁻¹ s⁻¹ | 0.452 pM | 130 h | 1.37e-06 s⁻¹ | 3.03e+06 M⁻¹ s⁻¹
H4H2102P (antibody, V domains shown, Fully human, human IgG4 Fc (H4H prefix)) VH: EVQLVESGGGLVQPGGSLRLSCAASGFTFSNYDIHWVRQATGKGLEWVSAIGPAGDTYYSDSVKGRFTISREDAKNSLYLQMSSLRAGDTAVYYCASEGIAVRPDDYYGMDVWGQGTTVTVSA VL: DIQLTQSPSFLSASVGDRVTITCWASQDITSYLAWYQKKPGKAPKLLIYAASTLQSGVPSRFSGSGSGTEFTLTISSLQPEDFAAYYCQQLNSYPLTFGGGTKVDIKR | 55.1 pM | 3.63 h | 4.88e-05 s⁻¹ | 886000 M⁻¹ s⁻¹ | 1.43 pM | 78.7 h | 2.26e-06 s⁻¹ | 1.58e+06 M⁻¹ s⁻¹
H4H2111P (antibody, V domains shown, Fully human, human IgG4 Fc (H4H prefix)) VH: QVQLVESGGGVVQPGRSLRLSCAASGFTFNNYGMHWVRQAPGKGLAWVAVMWYSESHKYYADSVKGRFTISRDNSKNTLYLEMNSLRVEDTAIYYCARDLGDPDAFDIWGQGTMVTVSS VL: DIQLTQSPSFLSASVGDRVTITCWASQGISSYLAWYQQKPGKAPKLLIYGASTLQSGVPSRFSGSGSGTEFTLTISSLQPEDFATYYCQQLNSYPLTFGGGTKVEIKR | 53.1 pM | 1.52 h | 0.000118 s⁻¹ | 2.21e+06 M⁻¹ s⁻¹ | 2.49 pM | 20.4 h | 8.69e-06 s⁻¹ | 3.5e+06 M⁻¹ s⁻¹

The next lines start with the values.

Kd [1] | T½ [1] | koff [1] | kon [1] | Kd [2] | T½ [2] | koff [2] | kon [2] | Binder
17.7 pM | 4.65 h | 3.81e-05 s⁻¹ | 2.16e+06 M⁻¹ s⁻¹ | 0.958 pM | 53 h | 3.35e-06 s⁻¹ | 3.49e+06 M⁻¹ s⁻¹ | H4H2132P (antibody, V domains shown, Fully human, human IgG4 Fc (H4H prefix)) VH: EVQLVESGGGVVRPGGSLRLSCAASGFTFDDYGMSWVRQFPGKGLEWVSSIDGNGGNTGYSDSVKGRFTISRDNAKNSLHLQMNSLRAEDTALYHCARDPDYDSVWGNYRPFDYWGQGTLVTVSS VL: DIVMTQSPDSLAVSLGERATINCKSSQSVLSSSNDNNYLAWFQQKPGQPPNLLIYWASTRDSGVPDRFSASGSGTDFTLAISSLQAEDVAVYYCHQYYSSPPTFGQGTKVEIKR
20.9 pM | 3.55 h | 5.01e-05 s⁻¹ | 2.39e+06 M⁻¹ s⁻¹ | 1.47 pM | 32.5 h | 5.46e-06 s⁻¹ | 3.71e+06 M⁻¹ s⁻¹ | H4H2138P (antibody, V domains shown, Fully human, human IgG4 Fc (H4H prefix)) VH: QVQLQESGPGLVKPSQTLSLTCTVSGGSINSGGYYWSWIRQHPGKGLEWIGYISYSGNTNYNPSLKSRVTISVDTSKNQFSLTLTSVTAADTAVYYCARDSDVDTGLVDGFDVWGQGTMVTVSS VL: DIVMTQSPSSVSASVGDRVTITCRASQGVSSWLAWYQQKPGKAPKLLIYTTSSLQSGVPSRFSGSGSGTDFTLTISSLQPEDFATYYCQQSNSFPFTFGPGTKVEIK
19.8 pM | 5.43 h | 3.27e-05 s⁻¹ | 1.66e+06 M⁻¹ s⁻¹ | 0.393 pM | 180 h | 9.86e-07 s⁻¹ | 2.51e+06 M⁻¹ s⁻¹ | H4H2140P (antibody, V domains shown, Fully human, human IgG4 Fc (H4H prefix)) VH: EVQLVESGGGLVQPGGSLRLSCAASGFSVSYYDMHWVRQVTGKGLEWVSAIGPAGDTYYPGSVKGRFTISREDATNSLYLQIHSLGAGDTAVYYCAREGAIAARPDDYYGMDVWGQGTTVTVSS VL: DIQLTQSPSFLSASVGDRVTITCWASQDISSYLAWYQQKPGKAPKLLIYAASTLQSGVPSRFSGSGSGTEFTLTISSLQPEDFATYYCQQLNSYPLTFGGGTKVEIKR
53.1 pM | 1.82 h | 9.73e-05 s⁻¹ | 1.83e+06 M⁻¹ s⁻¹ | 1.75 pM | 38.4 h | 4.63e-06 s⁻¹ | 2.86e+06 M⁻¹ s⁻¹ | H4H2143P (antibody, V domains shown, Fully human, human IgG4 Fc (H4H prefix)) VH: EVQLVESGGGLVQPGRSLRLSCAASGFTFGDYAMHWVRQAPGKGLEWVSGINLNSGTIGYADSVKGRFTISRDNAKNSLYLQMNSLRAEDTAFYYCAKDIDGYYHYAMDVWGQGTTVTVSS VL: DVVMTQSPSFLSASVGDRVTITCWASQGISSYLAWYQQKPGKAPKLLIYDASTLESGVPSRFSGSGSGTEFTLTISNLQPEDFATYYCQQVNSYPLTFGGGTKVEIKR
43.8 pM | 1.63 h | 0.000108 s⁻¹ | 2.47e+06 M⁻¹ s⁻¹ | 1.5 pM | 38.8 h | 4.58e-06 s⁻¹ | 3.33e+06 M⁻¹ s⁻¹ | H4H2147P (antibody, V domains shown, Fully human, human IgG4 Fc (H4H prefix)) VH: QVQLVESGGGLVKPGGSLRLSCAASGFTFSDFNMGWIRQAPGKGLEWVSHISGSGNVIYYADSVKGRFAISRDNGKNSLYLQVNSLRAEDTAVYYCARDIGDSDAFDIWGQGTMVTVSS VL: DIQLTQSPSFLSASVGDRVTITCWASQDISSYLAWYQQKPGKAPKLLIYGASTLESGVPSRFSGSGSGTEFTLTISSLQPEDVATYYCQQLNTYPLTFGGGTKVEIKR
12.4 pM | 5.13 h | 3.46e-05 s⁻¹ | 2.79e+06 M⁻¹ s⁻¹ | 0.435 pM | 89.9 h | 1.98e-06 s⁻¹ | 4.54e+06 M⁻¹ s⁻¹ | H4H2146P (antibody, V domains shown, Fully human, human IgG4 Fc (H4H prefix)) VH: QVQLVESGGGVVQPGRSLRLSCAASGFTFINYGIHWVRQGPGKGLEWVAVIWYDGSNEWYADSVKGRFTISRDNSKNTVYLEMNKLRAEDTAVYYCAREEEDYGMDVWGQGTTVTVSS VL: not shown

Source: US20140072563A1 (Regeneron, published 2014)
